Assay results from PMC1278935, “Different Catalytic Mechanisms in Mammalian Selenocysteine- and Cysteine-Containing Methionine-R-Sulfoxide Reductases” (PLoS Biology, 2005).

Test system: T1, CN(C)c1ccc(N=Nc2ccc(S(=O)(=O)N[C@@H](CC[S@@+](C)[O-])C(=O)O)cc2)cc1
T1 construct: full-length mouse MsrB2, C-terminal His tag (LEHHHHHH), E. coli BL21(DE3), monomer
Experiment: HPLC of dabsyl-Met, Lineweaver-Burk
Assay type: biochemical, Mus musculus
Settings: 20 mM DTT, 50 mM sodium phosphate pH 7.5, 50 mM NaCl, 37 °C, from E. coli
From the text: HPLC of dabsyl-Met, Lineweaver-Burk on MsrB2

Sequence of MsrB2 (Mus musculus; V149E) (chain, as listed by the source V149E): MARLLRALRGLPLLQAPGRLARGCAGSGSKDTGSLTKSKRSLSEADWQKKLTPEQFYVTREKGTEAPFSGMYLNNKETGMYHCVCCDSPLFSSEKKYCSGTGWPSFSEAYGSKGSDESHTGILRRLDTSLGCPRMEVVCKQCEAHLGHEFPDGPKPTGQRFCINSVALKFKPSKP
Sequence of MsrB2 (Mus musculus; H119G) (chain, as listed by the source H119G): as the sequence (chain, as listed by the source V149E) above, with H119G, E149V counted along it
Sequence of MsrB2 (Mus musculus) (chain, as listed by the source): as the sequence (chain, as listed by the source V149E) above, with E149V counted along it

Substance | Km [µM] | kcat [s⁻¹] | Km (MsrB1 numbering) [µM] | kcat (MsrB1 numbering) [s⁻¹]
MsrB2 (Mus musculus) | 310 ± 100 | 0.458 ± 0.0633 | – | –
MsrB2 (Mus musculus; V149E) | – | – | 140 ± 40 | 0.0933 ± 0.012
MsrB2 (Mus musculus; H119G) | – | – | 340 ± 60 | 0.0083 ± 0.0017
